As usually defined, the Kd is the free concentration of one partner at which half of the binding sites on the other are occupied at equilibrium, for simple one-to-one binding. The low end stands for higher affinity, the high end for lower affinity.

Data set [1] has as its target T1, DOF5.8-ZF (Arabidopsis thaliana, UniProt Q9FGD6 24-83).
T1 sequence: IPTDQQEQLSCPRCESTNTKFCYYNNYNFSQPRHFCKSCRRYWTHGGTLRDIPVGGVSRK
In words: MST.

Data set [2] concerns the target T2, DOF3.4-ZF (Arabidopsis thaliana, UniProt Q39088 22-81).
T2 sequence: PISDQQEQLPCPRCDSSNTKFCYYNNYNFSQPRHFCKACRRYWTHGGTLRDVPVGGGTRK
Briefly: MST.

The target in data set [3] is T1, DOF5.8-ZF. Briefly: EMSA. A general note: Mobility shift assays separate free from complexed probe on a gel.
Data set [4] has as its target T2, DOF3.4-ZF. Briefly: EMSA.

B1: Double-motif probe, fluorescein (dsDNA)
DNA 1: AAATAATCATAAAGTATTAAAGTAATATATAC
DNA 2: GTATATATTACTTTAATACTTTATGATTATTT
For the molecule B1, the Kd with DOF5.8-ZF [1] was found to be 2500 ± 1000 nM; with DOF3.4-ZF [2], 2300 ± 1000 nM.

B2: Control for double-motif probe (dsDNA)
DNA 1: AAATAATCATGCGATATTGCGAAATATATAAC
DNA 2: GTTATATATTTCGCAATATCGCATGATTATTT
Turning to B2, the binding result in the data set with DOF5.8-ZF [3] and with DOF3.4-ZF [4] was “no binding” in each case.

B3: Control for single-motif probe (dsDNA)
DNA 1: AATCCAGCGATGTAGAGGAG
DNA 2: CTCCTCTACATCGCTGGATT
With B3, the binding result with DOF5.8-ZF [3] and in the data set with DOF3.4-ZF [4] was “no binding” in each case.

The record behind these values is PMC6128974.
